Experimental data: publication doi:10.1101/2025.03.07.642025, “The TONSL-MMS22L complex and FANCM form an interdependent complex on chromatin to counter replication stress” (bioRxiv, 2025)

Tests used:
FANCM [1] = molecular target: T1, FANCM (human (endogenous in HeLa), UniProt Q8IYD8 1-2048); test: proximity ligation; PLA in TMP/UVA-treated cells, early and late S phase sorted by flow cytometry; PCNA as marker of the S phase stage; conditions: partners not purified
T1 construct: FANCM, human, endogenous in HeLa cells; also called endogenous FANCM; source: endogenous, HeLa
T1 sequence (Q8IYD8 whole entry): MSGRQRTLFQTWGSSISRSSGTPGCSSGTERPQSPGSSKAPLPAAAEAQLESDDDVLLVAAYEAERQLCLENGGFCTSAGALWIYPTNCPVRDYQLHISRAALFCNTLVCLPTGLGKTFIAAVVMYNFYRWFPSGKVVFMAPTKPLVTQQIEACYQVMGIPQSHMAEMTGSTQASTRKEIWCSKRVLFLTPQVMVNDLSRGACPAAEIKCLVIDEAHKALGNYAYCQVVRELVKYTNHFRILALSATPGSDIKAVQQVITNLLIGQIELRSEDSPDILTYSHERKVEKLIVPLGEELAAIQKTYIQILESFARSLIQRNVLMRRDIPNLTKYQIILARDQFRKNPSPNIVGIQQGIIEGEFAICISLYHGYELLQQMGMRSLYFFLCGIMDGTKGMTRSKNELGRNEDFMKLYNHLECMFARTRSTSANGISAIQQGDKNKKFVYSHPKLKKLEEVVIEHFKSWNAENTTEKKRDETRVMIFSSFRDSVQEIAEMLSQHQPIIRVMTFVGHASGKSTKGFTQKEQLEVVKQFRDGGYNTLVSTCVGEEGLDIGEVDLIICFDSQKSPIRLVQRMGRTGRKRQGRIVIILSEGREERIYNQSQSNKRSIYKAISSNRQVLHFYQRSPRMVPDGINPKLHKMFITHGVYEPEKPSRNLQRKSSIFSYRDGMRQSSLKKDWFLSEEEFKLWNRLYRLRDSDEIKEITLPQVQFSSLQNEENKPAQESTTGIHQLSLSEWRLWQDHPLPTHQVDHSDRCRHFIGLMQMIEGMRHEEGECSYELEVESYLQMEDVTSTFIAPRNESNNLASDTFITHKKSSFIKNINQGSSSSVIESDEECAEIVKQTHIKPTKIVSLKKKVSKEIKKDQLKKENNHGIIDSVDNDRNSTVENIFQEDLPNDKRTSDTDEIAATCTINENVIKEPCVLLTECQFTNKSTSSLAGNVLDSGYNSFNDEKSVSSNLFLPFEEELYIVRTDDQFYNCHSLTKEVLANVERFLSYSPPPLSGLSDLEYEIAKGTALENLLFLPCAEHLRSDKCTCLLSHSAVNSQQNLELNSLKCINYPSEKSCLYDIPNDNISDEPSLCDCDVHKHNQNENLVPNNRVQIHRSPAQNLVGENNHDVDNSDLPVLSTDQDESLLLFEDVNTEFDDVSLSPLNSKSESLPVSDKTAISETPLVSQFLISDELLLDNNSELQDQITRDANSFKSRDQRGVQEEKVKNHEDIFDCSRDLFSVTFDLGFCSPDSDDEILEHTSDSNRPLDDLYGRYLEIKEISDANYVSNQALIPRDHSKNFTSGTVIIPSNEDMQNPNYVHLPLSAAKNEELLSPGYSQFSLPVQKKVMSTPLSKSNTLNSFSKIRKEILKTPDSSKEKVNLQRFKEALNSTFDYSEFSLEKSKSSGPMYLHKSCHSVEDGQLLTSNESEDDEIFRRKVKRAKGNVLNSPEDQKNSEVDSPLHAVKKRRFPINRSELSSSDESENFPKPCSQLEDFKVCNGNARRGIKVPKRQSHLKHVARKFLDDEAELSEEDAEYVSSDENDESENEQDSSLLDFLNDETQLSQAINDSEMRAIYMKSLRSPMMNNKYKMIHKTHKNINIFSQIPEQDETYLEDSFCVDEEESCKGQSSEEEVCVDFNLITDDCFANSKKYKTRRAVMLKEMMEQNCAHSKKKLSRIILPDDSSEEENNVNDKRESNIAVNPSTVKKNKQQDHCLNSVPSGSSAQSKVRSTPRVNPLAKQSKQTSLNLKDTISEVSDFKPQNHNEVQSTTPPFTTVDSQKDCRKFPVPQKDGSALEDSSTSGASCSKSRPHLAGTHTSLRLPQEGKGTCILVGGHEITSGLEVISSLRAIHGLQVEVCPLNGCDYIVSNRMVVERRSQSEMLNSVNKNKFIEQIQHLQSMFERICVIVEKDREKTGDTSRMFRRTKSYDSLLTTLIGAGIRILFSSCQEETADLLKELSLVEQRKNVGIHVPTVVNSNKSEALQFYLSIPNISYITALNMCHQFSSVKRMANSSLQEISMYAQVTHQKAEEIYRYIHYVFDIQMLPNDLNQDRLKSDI

FANCM [2] = molecular target: T1, FANCM; test: proximity ligation; Duolink PLA in HeLa cells treated with 1.5 uM TMP and UVA (3 J/cm2), 60 min in fresh medium before fixation; conditions: partners not purified

Binder	fold increase of PLA signals, late S over early S phase (FANCM [1])	fold increase of PLA signals, TMP/UVA-treated over UVA-treated cells (FANCM [2])
MMS22L (natural protein, human (endogenous in HeLa), UniProt Q6ZRQ5 1-1243, looked up, MMS22L, human, endogenous in HeLa cells; source: endogenous, HeLa) MENCSAASTFLTDSLELELGTEWCKPPYFSCAVDNRGGGKHFSGESYLCSGALKRLILNLDPLPTNFEEDTLEIFGIQWVTETALVNSSRELFHLFRQQLYNLETLLQSSCDFGKVSTLHCKADNIRQQCVLFLHYVKVFIFRYLKVQNAESHVPVHPYEALEAQLPSVLIDELHGLLLYIGHLSELPSVNIGAFVNQNQIKLFPPSWHLLHLHLDIHWLVLEILYMLGEKLKQVVYGHQFMNLASDNLTNISLFEEHCETLLCDLISLSLNRYDKVRSSESLMSDQCPCLCIKELWVLLIHLLDHRSKWFVSESFWNWLNKLLKTLLEKSSDRRRSSMPVIQSRDPLGFSWWIITHVASFYKFDRHGVPDEMRKVESNWNFVEELLKKSISVQGVILEEQLRMYLHCCLTLCDFWEPNIAIVTILWEYYSKNLNSSFSISWLPFKGLANTMKSPLSMLEMVKTCCCDKQDQELYKSSSSYTIFLCILAKVVKKAMKSNGPHPWKQVKGRIYSKFHQKRMEELTEVGLQNFFSLFLLLAAVAEVEDVASHVLDLLNFLKPAFVTSQRALIWKGHMAFLLMYAQKNLDIGVLAEKFSCAFREKAKEFLVSKNEEMVQRQTIWTLLSIYIDGVQEVFETSYCLYPSHEKLLNDGFSMLLRACRESELRTVLSFLQAVLARIRSMHQQLCQELQRDNVDLFVQSSLSAKERHLAAVASALWRHFFSFLKSQRMSQVVPFSQLADAAADFTLLAMDMPSTAPSDFQPQPVISIIQLFGWDDIICPQVVARYLSHVLQNSTLCEALSHSGYVSFQALTVRSWIRCVLQMYIKNLSGPDDLLIDKNLEEAVEKEYMKQLVKLTRLLFNLSEVKSIFSKAQVEYLSISEDPKKALVRFFEAVGVTYGNVQTLSDKSAMVTKSLEYLGEVLKYIKPYLGKKVFSAGLQLTYGMMGILVKSWAQIFATSKAQKLLFRIIDCLLLPHAVLQQEKELPAPMLSAIQKSLPLYLQGMCIVCCQSQNPNAYLNQLLGNVIEQYIGRFLPASPYVSDLGQHPVLLALRNTATIPPISSLKKCIVQVIRKSYLEYKGSSPPPRLASILAFILQLFKETNTDIYEVELLLPGILKCLVLVSEPQVKRLATENLQYMVKACQVGSEEEPSSQLTSVFRQFIQDYGMRYYYQVYSILETVATLDQQVVIHLISTLTQSLKDSEQKWGLGRNIAQREAYSKLLSHLGQMGQDEMQRLENDNT	~20 fold	~20 fold
TONSL (natural protein, human (endogenous in HeLa), UniProt Q96HA7 1-1378, looked up, TONSL, human, endogenous in HeLa cells; source: endogenous, HeLa) MSLERELRQLSKAKAKAQRAGQRREEAALCHQLGELLAGHGRYAEALEQHWQELQLRERADDPLGCAVAHRKIGERLAEMEDYPAALQHQHQYLELAHSLRNHTELQRAWATIGRTHLDIYDHCQSRDALLQAQAAFEKSLAIVDEELEGTLAQGELNEMRTRLYLNLGLTFESLQQTALCNDYFRKSIFLAEQNHLYEDLFRARYNLGTIHWRAGQHSQAMRCLEGARECAHTMRKRFMESECCVVIAQVLQDLGDFLAAKRALKKAYRLGSQKPVQRAAICQNLQHVLAVVRLQQQLEEAEGRDPQGAMVICEQLGDLFSKAGDFPRAAEAYQKQLRFAELLDRPGAERAIIHVSLATTLGDMKDHHGAVRHYEEELRLRSGNVLEEAKTWLNIALSREEAGDAYELLAPCFQKALSCAQQAQRPQLQRQVLQHLHTVQLRLQPQEAPETETRLRELSVAEDEDEEEEAEEAAATAESEALEAGEVELSEGEDDTDGLTPQLEEDEELQGHLGRRKGSKWNRRNDMGETLLHRACIEGQLRRVQDLVRQGHPLNPRDYCGWTPLHEACNYGHLEIVRFLLDHGAAVDDPGGQGCEGITPLHDALNCGHFEVAELLLERGASVTLRTRKGLSPLETLQQWVKLYRRDLDLETRQKARAMEMLLQAAASGQDPHSSQAFHTPSSLLFDPETSPPLSPCPEPPSNSTRLPEASQAHVRVSPGQAAPAMARPRRSRHGPASSSSSSEGEDSAGPARPSQKRPRCSATAQRVAAWTPGPASNREAATASTSRAAYQAAIRGVGSAQSRLGPGPPRGHSKALAPQAALIPEEECLAGDWLELDMPLTRSRRPRPRGTGDNRRPSSTSGSDSEESRPRARAKQVRLTCMQSCSAPVNAGPSSLASEPPGSPSTPRVSEPSGDSSAAGQPLGPAPPPPIRVRVQVQDHLFLIPVPHSSDTHSVAWLAEQAAQRYYQTCGLLPRLTLRKEGALLAPQDLIPDVLQSNDEVLAEVTSWDLPPLTDRYRRACQSLGQGEHQQVLQAVELQGLGLSFSACSLALDQAQLTPLLRALKLHTALRELRLAGNRLGDKCVAELVAALGTMPSLALLDLSSNHLGPEGLRQLAMGLPGQATLQSLEELDLSMNPLGDGCGQSLASLLHACPLLSTLRLQACGFGPSFFLSHQTALGSAFQDAEHLKTLSLSYNALGAPALARTLQSLPAGTLLHLELSSVAAGKGDSDLMEPVFRYLAKEGCALAHLTLSANHLGDKAVRDLCRCLSLCPSLISLDLSANPEISCASLEELLSTLQKRPQGLSFLGLSGCAVQGPLGLGLWDKIAAQLRELQLCSRRLCAEDRDALRQLQPSRPGPGECTLDHGSKLFFRRL	~20 fold	~20 fold
